Test results published in US20150020221A1.

Molecular target: PARP1 (endogenous, Hela cell lysate) (human) (UniProt P09874)
Test: scanning densitometry of PARP1 immunoprecipitates from Hela cells (FIG. 4B)

Chain of PARP1 (endogenous, Hela cell lysate) (human) (P09874 2-1014 limits assumed): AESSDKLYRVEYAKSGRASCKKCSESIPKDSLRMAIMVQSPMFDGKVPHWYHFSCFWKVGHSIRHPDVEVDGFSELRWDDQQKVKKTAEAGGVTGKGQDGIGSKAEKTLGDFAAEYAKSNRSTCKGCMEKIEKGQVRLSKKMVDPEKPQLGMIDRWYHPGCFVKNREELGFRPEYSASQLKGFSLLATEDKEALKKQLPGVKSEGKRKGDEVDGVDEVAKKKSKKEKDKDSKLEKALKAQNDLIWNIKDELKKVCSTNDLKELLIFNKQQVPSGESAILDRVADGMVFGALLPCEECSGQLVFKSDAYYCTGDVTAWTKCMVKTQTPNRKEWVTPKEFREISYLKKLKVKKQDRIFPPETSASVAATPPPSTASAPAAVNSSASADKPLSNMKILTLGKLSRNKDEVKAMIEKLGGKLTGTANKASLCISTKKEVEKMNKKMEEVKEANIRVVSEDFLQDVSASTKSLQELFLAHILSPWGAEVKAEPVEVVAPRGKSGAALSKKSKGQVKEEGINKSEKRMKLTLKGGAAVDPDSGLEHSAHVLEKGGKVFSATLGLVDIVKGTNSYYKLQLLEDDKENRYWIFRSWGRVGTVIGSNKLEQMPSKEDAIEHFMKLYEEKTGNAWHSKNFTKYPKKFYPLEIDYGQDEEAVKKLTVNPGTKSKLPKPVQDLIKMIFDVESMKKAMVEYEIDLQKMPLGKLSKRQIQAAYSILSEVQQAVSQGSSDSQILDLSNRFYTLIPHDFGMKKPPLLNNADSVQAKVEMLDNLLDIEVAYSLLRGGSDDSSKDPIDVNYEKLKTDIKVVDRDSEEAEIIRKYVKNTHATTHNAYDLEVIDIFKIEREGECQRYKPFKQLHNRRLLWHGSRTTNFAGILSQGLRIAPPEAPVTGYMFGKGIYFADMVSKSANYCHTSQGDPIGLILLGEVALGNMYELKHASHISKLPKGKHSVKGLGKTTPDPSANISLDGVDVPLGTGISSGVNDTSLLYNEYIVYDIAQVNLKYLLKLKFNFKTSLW

For “BAL1 (endogenous, Hela cell lysate) (from UniProt Q8IXQ6 1-854)”, the fold increase co-immunoprecipitated with PARP1 (Dox-treated versus untreated cells) was 4.8 fold.
